± gives the standard error. Variants at the floor of the assay were thinned out.
B1: glmS ribozyme (parent)
chain: AUAAAAGCGCCAGAACUACAGAAAUGUAGUUGACGAGGAGGAGGUUUAUCGAAUUUUCGGCGGAUGCCUCCAAA

Legend:
Details in all cases: with glucosamine-6-phosphate
glucosamine-6-phosphate [1] = variants of: B1; assay: self-cleavage kobs at 40 uM GlcN6P; higher = faster cleavage; RNA array
Procedure, shortened: (§1)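 A hybridised Cy3 probe tracked barcoded ribozyme variants, transcribed in situ by E. coli RNA polymerase on sequenced MiSeq chips, at 37 °C. The variants received 40 μM to 10 mM glucosamine-6-phosphate in HEPES/KCl/Mg(OAc)2 buffer. kobs came from decay fits and kcat and KM from weighted Michaelis–Menten fits.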

glucosamine-6-phosphate [2] = variants of: B1; assay: self-cleavage kobs at 160 uM GlcN6P; higher = faster cleavage; RNA array
Procedure, shortened: as §1

glucosamine-6-phosphate [3] = variants of: B1; assay: self-cleavage kobs at 640 uM GlcN6P; higher = faster cleavage; RNA array
Procedure, shortened: as §1

glucosamine-6-phosphate [4] = variants of: B1; assay: self-cleavage kobs at 2500 uM GlcN6P; higher = faster cleavage; RNA array
Procedure, shortened: as §1

glucosamine-6-phosphate [5] = variants of: B1; assay: self-cleavage kobs at 10000 uM GlcN6P; higher = faster cleavage; RNA array
Procedure, shortened: as §1

Variant | self-cleavage kobs at 40 uM GlcN6P (glucosamine-6-phosphate [1]) [s⁻¹] | self-cleavage kobs at 160 uM GlcN6P (glucosamine-6-phosphate [2]) [s⁻¹] | self-cleavage kobs at 640 uM GlcN6P (glucosamine-6-phosphate [3]) [s⁻¹] | self-cleavage kobs at 2500 uM GlcN6P (glucosamine-6-phosphate [4]) [s⁻¹] | self-cleavage kobs at 10000 uM GlcN6P (glucosamine-6-phosphate [5]) [s⁻¹]
A15U C71U | 0.000165 ± 1.3e-05 | 0.00037 ± 4.8e-05 | 0.00103 ± 9e-05 | 0.00528 ± 0.00075 | 0.00793 ± 0.0013
C16A G35U G43C C68U | < 1e-05 | < 1e-05 | < 1e-05 | – | –
A28U | 0.000787 ± 0.00025 | – | – | 0.0144 ± 0.0048 | 0.0176 ± 0.0065
C16A C34A G37U C50A C61A | 0.000276 ± 6.5e-05 | – | – | – | 0.000316 ± 6.4e-05
U30A G60U | < 1e-05 | < 1e-05 | < 1e-05 | – | < 1e-05
C16U G41U A53U | 3.27e-05 ± 1.6e-05 | – | – | – | 0.00071 ± 0.00015
C16G G38C | < 1e-05 | < 1e-05 | – | – | –
U30C G44A | < 1e-05 | < 1e-05 | < 1e-05 | – | < 1e-05
C16U G59C | < 1e-05 | – | < 1e-05 | – | < 1e-05
U30C A33C | < 1e-05 | < 1e-05 | < 1e-05 | – | –
C16U U54C | 0.000813 ± 0.00013 | 0.00146 ± 0.00024 | 0.00641 ± 0.001 | 0.00606 ± 0.0012 | 0.0254 ± 0.0047
C16U U54A | 0.000888 ± 0.00012 | 0.00185 ± 0.0004 | 0.00323 ± 0.00079 | 0.00607 ± 0.0014 | 0.0405 ± 0.0081
C16A U55A G63U | < 1e-05 | – | – | – | –
C16U A33U G38A G40A | < 1e-05 | – | – | – | < 1e-05
C16G G59U | < 1e-05 | – | < 1e-05 | < 1e-05 | –
A15U G37C G38U | < 1e-05 | – | – | – | –
U30C U47C | < 1e-05 | < 1e-05 | – | – | –
A15U G29C A48G C71A | < 1e-05 | – | – | – | –
G29A C61U G63A | < 1e-05 | – | – | – | –
C16U G29A G37C | < 1e-05 | – | – | – | 5.01e-05 ± 1.6e-05
U30A G43C | < 1e-05 | – | < 1e-05 | – | < 1e-05
C16A A52U G60A C71G | 5.98e-05 ± 2.3e-05 | – | – | – | –
U30G A36U C50G C67U | 0.000201 ± 3.9e-05 | – | – | – | 0.00055 ± 0.00011
G29U G37C A39G U56A C61G | < 1e-05 | – | – | – | –
C16U G41A U56C | < 1e-05 | – | – | – | 3.75e-05 ± 1.4e-05

Source: the supplement of paper PMC7125110
